According to publication PMC9772228, “Structure of a RecT/Redβ family recombinase in complex with a duplex intermediate of DNA annealing”:

Experiments:
Assay in all cases: EMSA; little to no detectable; EMSA: PBS pH 7.4 (or KH2PO4/10 mM MgCl2 pH 6.0), 3.6 or 5 uM protein, 25 uM nt DNA, 37 C 15 min per strand, 0.8% agarose 1x TBE; cryo-EM: 20 mM KH2PO4 (Results: 10 mM), 10 mM MgCl2 pH 6.0, 37 C; native MS: 100 mM ammonium acetate pH 7, 37 C
Conditions in all cases: protein: recombinant, tags: N-terminal 6His vector tag (20 aa) retained, chain copies: 10
LiRecT K111A/K215A = biological target: T1, LiRecT K111A/K215A (Listeria innocua CLIP 11262, UniProt Q92FL9 1-271, K111A;K215A)
T1 sequence: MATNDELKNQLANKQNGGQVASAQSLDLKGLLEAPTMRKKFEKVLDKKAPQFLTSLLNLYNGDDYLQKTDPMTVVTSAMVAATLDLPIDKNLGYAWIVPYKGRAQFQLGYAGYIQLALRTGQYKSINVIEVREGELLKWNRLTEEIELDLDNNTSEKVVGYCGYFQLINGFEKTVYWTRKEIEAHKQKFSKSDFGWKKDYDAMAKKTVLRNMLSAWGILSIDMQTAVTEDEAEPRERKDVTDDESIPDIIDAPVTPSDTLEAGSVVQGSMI

LiRecT R210A/K215A = biological target: T2, LiRecT R210A/K215A (Listeria innocua CLIP 11262, UniProt Q92FL9 1-271, R210A;K215A)
T2 sequence: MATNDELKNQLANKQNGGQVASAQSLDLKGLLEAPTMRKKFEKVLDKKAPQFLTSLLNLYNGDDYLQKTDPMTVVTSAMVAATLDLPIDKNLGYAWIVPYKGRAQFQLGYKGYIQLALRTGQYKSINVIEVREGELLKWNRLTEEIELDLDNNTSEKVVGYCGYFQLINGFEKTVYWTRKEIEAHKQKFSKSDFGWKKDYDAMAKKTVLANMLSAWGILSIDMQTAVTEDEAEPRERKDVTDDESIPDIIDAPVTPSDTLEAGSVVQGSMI

LiRecT K206E = biological target: T3, LiRecT K206E (Listeria innocua CLIP 11262, UniProt Q92FL9 1-271, K206E)
T3 sequence: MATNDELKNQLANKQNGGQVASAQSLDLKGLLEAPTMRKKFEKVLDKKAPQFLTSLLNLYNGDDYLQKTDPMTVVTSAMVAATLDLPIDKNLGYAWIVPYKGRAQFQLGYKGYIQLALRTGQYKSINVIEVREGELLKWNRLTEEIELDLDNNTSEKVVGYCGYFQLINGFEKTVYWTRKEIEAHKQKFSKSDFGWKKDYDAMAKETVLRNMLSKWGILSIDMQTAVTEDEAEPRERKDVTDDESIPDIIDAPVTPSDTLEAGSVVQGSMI

LiRecT K206A/R210A = biological target: T4, LiRecT K206A/R210A (Listeria innocua CLIP 11262, UniProt Q92FL9 1-271, K206A;R210A)
T4 sequence: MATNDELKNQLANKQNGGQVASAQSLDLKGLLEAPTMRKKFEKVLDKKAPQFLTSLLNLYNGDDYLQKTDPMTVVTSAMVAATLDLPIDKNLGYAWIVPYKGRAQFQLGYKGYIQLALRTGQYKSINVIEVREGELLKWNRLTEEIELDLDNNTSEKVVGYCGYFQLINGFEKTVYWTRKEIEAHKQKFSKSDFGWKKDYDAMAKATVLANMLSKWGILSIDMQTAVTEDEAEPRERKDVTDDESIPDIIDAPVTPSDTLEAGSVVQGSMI

LiRecT K206A/K215A = biological target: T5, LiRecT K206A/K215A (Listeria innocua CLIP 11262, UniProt Q92FL9 1-271, K206A;K215A)
T5 sequence: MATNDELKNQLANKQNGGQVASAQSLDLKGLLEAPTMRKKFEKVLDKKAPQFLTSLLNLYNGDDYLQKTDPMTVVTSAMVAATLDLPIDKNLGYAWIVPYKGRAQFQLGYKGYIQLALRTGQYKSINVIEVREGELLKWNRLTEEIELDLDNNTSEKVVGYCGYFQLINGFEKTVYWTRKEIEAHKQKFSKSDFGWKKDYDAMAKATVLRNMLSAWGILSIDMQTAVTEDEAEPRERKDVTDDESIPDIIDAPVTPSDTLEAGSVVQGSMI

[1] = label: 5'-Cy3;5'-Cy5, 49 bp, 1 nt 5' overhang at each end

Measured: binding result

CCATCCGCAAAAATCGAGCTATGCAGGGCGATTCTGCTCTAAGCCATCCG (ssDNA) [Cy5-50mer]
no binding: LiRecT K111A/K215A; label: 5'-Cy5, single strand | LiRecT R210A/K215A; label: 5'-Cy5, single strand | LiRecT K206E; label: 5'-Cy5, single strand | LiRecT K206A/R210A; label: 5'-Cy5, single strand | LiRecT K206A/K215A; label: 5'-Cy5, single strand

B1: 50-mer duplex intermediate (sequential addition) (dsDNA)
DNA 1: GCGGATGGCTTAGAGCAGAATCGCCCTGCATAGCTCGATTTTTGCGGATG
DNA 2: CCATCCGCAAAAATCGAGCTATGCAGGGCGATTCTGCTCTAAGCCATCCG
no binding: LiRecT K111A/K215A; [1] | LiRecT R210A/K215A; [1] | LiRecT K206E; [1] | LiRecT K206A/R210A; [1] | LiRecT K206A/K215A; [1]

GCGGATGGCTTAGAGCAGAATCGCCCTGCATAGCTCGATTTTTGCGGATG (ssDNA) [Cy3-50mer]
no binding: LiRecT K111A/K215A; label: 5'-Cy3, single strand | LiRecT R210A/K215A; label: 5'-Cy3, single strand | LiRecT K206E; label: 5'-Cy3, single strand | LiRecT K206A/R210A; label: 5'-Cy3, single strand | LiRecT K206A/K215A; label: 5'-Cy3, single strand
